For the test, the target named is ActHIB, Haemophilus influenzae type b capsular polysaccharide (PRP) tetanus toxoid conjugate, withou (UniProt P04958 2-1315). Briefly: competitive ELISA, soluble murine Fc-dectin-1a on coated glucan. For orientation: ELISA stands for enzyme-linked immunosorbent assay.

B1: soluble murine Fc-dectin-1a receptor (InvivoGen) (Fc fusion)
chain: EYGHNSGRNPEEKDNFLSRNKENHKPTESSLDEKVAPSKASQTTGGFSQPCLPNWIMHGKSCYLFSFSGNSWYGSKRHCSQLGAHLLKIDNSKEFEFIESQTSSHRINAFWIGLSRNQSEGPWFWEDGSAFFPNSFQVRNTAPQESLLHNCVWIHGSEVYNQICNTSSYSICEKEL
For B1, the binding result is listed as “no binding”.

The record behind these values is US20250186580A1 (TRIDEM BIOSCIENCE, published 2025).
